Reference: doi:10.1101/697946

Biological target: LMP7-His, biotinylated (UniProt P28062)
Test: BLI

Nef-GST (from UniProt P03406 1-206) (natural protein)
Kd: 735 nM | wavelength shift: 71.1 pm
